Data from article PMC5379037.

B1: mW-box probe (dsDNA)
DNA 1: CGTAGACGGTAGACGGAGTAGACGTTTTA
DNA 2: TAAAACGTCTACTCCGTCTACCGTCTACG
B2: W-box probe (dsDNA)
DNA 1: CGTTGACCGTTGACCGAGTTGACTTTTTA
DNA 2: TAAAAAGTCAACTCGGTCAACGGTCAACG

Target: GST-CaWRKYa (Capsicum annuum, UniProt Q1XD53 1-546)
Assay: EMSA; 5 ug protein; EMSA: 4 C, 30 min, 5% native polyacrylamide gel in 0.5x TBE; 5 ug protein (0.5 ug in Fig. S5b); binding buffer, salt and pH not stated

Chain of GST-CaWRKYa (Q1XD53 entry or part of it): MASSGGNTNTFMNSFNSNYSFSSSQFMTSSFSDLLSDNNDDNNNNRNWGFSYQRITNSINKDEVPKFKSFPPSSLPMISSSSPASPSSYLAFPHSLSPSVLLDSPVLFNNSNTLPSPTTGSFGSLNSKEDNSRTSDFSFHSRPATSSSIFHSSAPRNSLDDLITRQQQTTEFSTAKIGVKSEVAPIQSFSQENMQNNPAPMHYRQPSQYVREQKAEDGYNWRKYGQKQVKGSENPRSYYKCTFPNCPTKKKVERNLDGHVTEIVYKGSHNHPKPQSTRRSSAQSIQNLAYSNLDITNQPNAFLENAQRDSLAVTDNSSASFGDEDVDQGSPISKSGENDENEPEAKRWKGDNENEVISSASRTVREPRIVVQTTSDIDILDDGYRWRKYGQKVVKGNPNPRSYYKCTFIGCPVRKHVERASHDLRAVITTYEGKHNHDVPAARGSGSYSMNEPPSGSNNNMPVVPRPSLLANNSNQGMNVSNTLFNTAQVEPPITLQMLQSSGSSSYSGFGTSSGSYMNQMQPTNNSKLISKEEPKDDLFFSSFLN

Binder	binding result
B1	no binding
B2	binds
